Experimental data as given in patent US20240010753A1 (EPIMAB BIOTHERAPEUTICS HK, published 2024).

Molecular target: T1, recombinant human ROR1-ECD protein (human, UniProt Q01973 30-406)
T1 construct: also called human ROR1 extracellular domain
Test: BLI (Octet RED96), FIT-Ig captured on anti-hIgG Fc sensors, ROR1 ECD in solution
Protocol: The ROR1/CD3 FIT-Ig proteins were assayed for and ranked by dissociation rate constant (koff, “off-rate”) using an Octet®RED96 biolayer interferometry (Pall FortéBio LLC). Anti-hIgG Fc Capture (AHC) Biosensors (Pall) were first exposed to antibody at a concentration of 100 nM for 30 seconds to capture antibody, then dipped into running buffer (1× pH 7.2 PBS, 0.05% Tween 20, 0.1% BSA) for 60 seconds to check baseline. Sensors with captured antibody were dipped into recombinant human ROR1 ECD protein at 10 ug/ml for 5 minutes to measure association, followed by dipped into running buffer for 1200 seconds to measure dissociation. The association and dissociation curves were fitted to a 1:1 Langmuir binding model using ForteBio Data Analysis software (Pall). The off-rate ratios were calculated by the off-rate of antibody to that of FIT1007-12B. Lower ratio indicates slower dissociation of the antibody in comparison with the parental chimeric antibody FIT1007-12B.

T1 sequence (Q01973 30-406): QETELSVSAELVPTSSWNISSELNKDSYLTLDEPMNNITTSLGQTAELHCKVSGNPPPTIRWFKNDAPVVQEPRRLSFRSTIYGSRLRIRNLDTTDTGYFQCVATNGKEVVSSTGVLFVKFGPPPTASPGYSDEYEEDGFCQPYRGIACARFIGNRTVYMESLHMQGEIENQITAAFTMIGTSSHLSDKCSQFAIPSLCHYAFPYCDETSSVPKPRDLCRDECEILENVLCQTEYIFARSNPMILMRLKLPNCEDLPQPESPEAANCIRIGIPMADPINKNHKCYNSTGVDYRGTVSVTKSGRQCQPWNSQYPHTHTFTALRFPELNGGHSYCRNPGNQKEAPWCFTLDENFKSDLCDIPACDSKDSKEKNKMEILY

- binding result: no binding (tested: 10 ug/ml)
B1: FIT1007-12B-15 (bispecific antibody, human IgG1, kappa, L234A L235A)
chain 1: not shown
chain 2: QVQLQQSGPELVKPGASVKISCKASGYAFSRSWMNWVKQRPEKGLEWIGRIYPGNADIKYQGNFKGKATLTADKSSSTAYMQLSSLTSEDSAVYFCAHIYYDFYYALDYWGQGTSVTVSSASTKGPSVFPLAPSSKSTSGGTAALGCLVKDYFPEPVTVSWNSGALTSGVHTFPAVLQSSGLYSLSSVVTVPSSSLGTQTYICNVNHKPSNTKVDKKVEPKSC
chain 3: not shown
notes: Chimeric ROR1 arm with CDR-H2 point mutations (AQ); ROR1xCD3 FIT-Ig, no linkers
